Test results: patent publication US20130164256A1 (AbbVie / Abbott, published 2013)
Positions count from the first letter of the chain named.

B1: hMAK195-AM14 (antibody, V domains shown)
VH: EVQLVESGGGLVQPGGSLRLSCAASGFTFSNYGVSWVRQAPGKGLEWVSMIWADGSTHYASSLKGRFTISRDNSKNTLYLQMNSLRAEDTAVYYCAREWQHGPVAYWGQGTLVTVSS
VL: DIQMTQSPSSLSASVGDRVTITCKASQAVSSAVAWYQQKPGKAPKLLIYWASTRHTGVPSRFSGSGSGTDFTLTISSLQPEDFATYYCQQHYSTPFTFGQGTKLEIKR
notes: Full-length IgG; also called rHC3; hMAK195 rHC3
B2: hMAK195-AM17 (antibody, V domains shown)
VH: B1 VH with S35T, H58D, S61D, S62T, L63V
VL: B1 VL
notes: Full-length IgG; also called rHC22; hMAK195 rHC22
B3: hMAK195-AM16 (antibody, V domains shown)
VH: B1 VH with S35T, L63V, V104A
VL: B1 VL
notes: Full-length IgG; also called rHC19; hMAK195 rHC19
B4: hMAK195-AM25 (antibody, V domains shown)
VH: B1 VH with S35T, L63V
VL: B1 VL with K24R, A28L, R54L, S93R
notes: Full-length IgG; also called S4-24; hMAK195 S4-24
B5: hMAK199-AM1 (antibody, V domains shown)
VH: EVQLVQSGAEVKKPGASVKVSCKASGYTFANYGIIWVRQAPGQGLEWMGWINTYTGKPTYAQKFQGRVTMTTDTSTSTAYMELSSLRSEDTAVYYCARKLFTTMDVTDNAMDYWGQGTTVTVSS
VL: DIQMTQSPSSLSASVGDRVTITCRASQDISQYLNWYQQKPGKAPKLLIYYTSRLQSGVPSRFSGSGSGTDFTLTISSLQPEDFATYFCQQGNTWPPTFGQGTKLEIK
notes: scFv clone J662M2S3#10 converted to full length IgG; HC plasmid pHybE-hCg1,z,non-a V2 (human IgG1), LC plasmid pHybE-hCk V3 (human kappa); also called J662M2S3#10
B6: hMAK199-AM8 (antibody, V domains shown)
VH: B5 VH
VL: B5 VL
notes: scFv clone J662M2S3#45 converted to full length IgG; HC plasmid pHybE-hCg1,z,non-a V2 (human IgG1), LC plasmid pHybE-hCk V3 (human kappa); also called J662M2S3#45

How the values were obtained:
human TNF-α [1] = target: T1, human TNF-α (human, UniProt P01375 77-233); experiment: cell-based or functional assay
T1 sequence (P01375 77-233 R107D limits assumed): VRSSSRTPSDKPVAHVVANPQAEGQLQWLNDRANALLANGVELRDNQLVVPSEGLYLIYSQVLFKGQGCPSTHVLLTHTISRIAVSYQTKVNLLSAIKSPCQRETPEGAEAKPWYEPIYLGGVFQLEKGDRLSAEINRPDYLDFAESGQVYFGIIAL

Rhesus/Macaque TNF [2] = target: Rhesus/Macaque TNF (rhesus/macaque, UniProt P48094 77-233); experiment: cell-based or functional assay
Chain of Rhesus/Macaque TNF (rhesus/macaque, UniProt P48094 77-233) (P48094 77-233 limits assumed): as the sequence (P01375 77-233 R107D limits assumed) above, with D31R, R44T, T72N, R138L counted along it

human TNF-α [3] = target: T1, human TNF-α; experiment: ELISA: IgG captured on goat anti-human IgG-Fc, biotin-human TNF titrated, streptavidin-HRP
human TNF-α [4] = target: T2, human TNF-α (human, UniProt P01375 77-233); experiment: cell-based or functional assay; remark: listed apart in the source
T2 sequence (P01375 77-233 R107D limits assumed): as the sequence (P01375 77-233 R107D limits assumed) above

Rhesus/Macaque TNF [5] = target: Rhesus/Macaque TNF (Rhesus/Macaque, UniProt P48094 77-233); experiment: cell-based or functional assay
Chain of Rhesus/Macaque TNF (Rhesus/Macaque, UniProt P48094 77-233) (P48094 77-233 limits assumed): as the sequence (P01375 77-233 R107D limits assumed) above, with D31R, R44T, T72N, R138L counted along it

human TNF-α [6] = target: T2, human TNF-α; experiment: hTNFa ELISA; IgG captured on anti-human IgG-Fc, biotinylated human TNF titrated

Binder | hu TNF neutralization IC50 (L929 bioassay) (human TNF-α [1]) | rhesus TNF neutralization IC50 (L929 bioassay) (Rhesus/Macaque TNF [2]) | EC50 (human TNF-α [3]) | hu TNF neutralization IC50 (human TNF-α [4]) | rhesus TNF neutralization IC50 (Rhesus/Macaque TNF [5]) | EC50 (human TNF-α [6])
B1 | 0.0401 nM | 4.61 nM | 0.051 nM | – | – | –
B2 | 0.0031 nM | > 25 nM | 0.056 nM | – | – | –
B3 | 0.0105 nM | 0.803 nM | 0.056 nM | – | – | –
B4 | 0.0114 nM | 0.262 nM | 0.052 nM | – | – | –
B5 | – | – | – | 0.054 nM | 0.012 nM | 0.016 nM
B6 | – | – | – | 0.247 nM | 0.204 nM | 0.219 nM
